Measurements taken from US20060275301A1 (Chugai, published 2006).

Molecular target: T1, β2 microglobulin (human, UniProt P61769 21-119)
T1 construct: β2M alone, as a denatured band on a Western blot; also called 12 kD molecule
Assay: Western blot

- binding result: no binding
B1: 2D7 antibody (antibody, V domains shown)
VH: QVQLQQSGPELVKPGASVKMSCKASGYTFTDYFIHWVKQRPGQGLEWIGWIFPGDDTTDYNEKFRGKTTLTADKSSSTAYILLSSLTSEDSAMYFCVRSDDFDYWGQGTTLTVSS
VL: QIVLTQSPAIMSASPGEKVTITCSASSSVSYMHWFQQKPGTFPKLWIYSTSNLASGVPTRFSGSGSGTSYSLTISRMEAEDAATYYCQQRTSYPPTFGSGTKLEIK
notes: CDR1 starts at 50 and 46, so these ranges probably include the leader, but no cleavage site is stated
